T1: APBA2_1, Q99767
T1 sequence (Q99767 563-664, limits assumed, looked up): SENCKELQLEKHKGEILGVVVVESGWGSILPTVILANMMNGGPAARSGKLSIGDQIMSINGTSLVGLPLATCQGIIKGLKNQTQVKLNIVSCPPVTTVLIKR

T2: ARHGEF11, O15085
T2 sequence (O15085 42-136, limits assumed, looked up): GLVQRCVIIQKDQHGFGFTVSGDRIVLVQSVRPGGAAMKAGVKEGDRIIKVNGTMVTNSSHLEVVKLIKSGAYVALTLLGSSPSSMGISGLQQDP

T3: CARD11, Q9BXL7
T3 sequence (Q9BXL7 662-765, limits assumed, looked up): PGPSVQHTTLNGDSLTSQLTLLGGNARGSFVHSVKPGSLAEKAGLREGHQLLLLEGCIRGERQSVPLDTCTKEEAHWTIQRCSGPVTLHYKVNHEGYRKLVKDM

T4: GRIP1_2, Q9Y3R0
T4 sequence (Q9Y3R0 145-248, limits assumed, looked up): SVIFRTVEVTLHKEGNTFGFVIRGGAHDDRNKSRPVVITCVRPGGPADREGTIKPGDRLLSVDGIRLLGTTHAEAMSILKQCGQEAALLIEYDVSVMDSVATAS

T5: GRIP1_5, Q9Y3R0
T5 sequence (Q9Y3R0 568-668, limits assumed, looked up): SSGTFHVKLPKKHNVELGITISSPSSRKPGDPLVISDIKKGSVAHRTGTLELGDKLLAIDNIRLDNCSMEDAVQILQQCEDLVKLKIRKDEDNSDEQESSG

T6: HTRA4, P83105
T6 sequence (P83105 378-476, limits assumed, looked up): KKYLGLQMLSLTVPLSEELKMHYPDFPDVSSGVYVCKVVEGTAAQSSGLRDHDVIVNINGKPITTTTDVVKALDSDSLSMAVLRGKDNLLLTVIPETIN

T7: LNX2_2, Q8N448
T7 sequence (Q8N448 334-432, limits assumed, looked up): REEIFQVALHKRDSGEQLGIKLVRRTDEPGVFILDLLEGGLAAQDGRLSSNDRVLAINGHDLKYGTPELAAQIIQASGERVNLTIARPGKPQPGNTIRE

T8: LRRC7, Q96NW7
T8 sequence (Q96NW7 1440-1537, limits assumed, looked up): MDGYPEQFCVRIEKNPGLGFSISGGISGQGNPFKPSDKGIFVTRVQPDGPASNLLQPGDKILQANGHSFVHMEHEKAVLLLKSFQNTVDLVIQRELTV

T9: MPDZ_10, O75970
T9 sequence (O75970 1624-1722, limits assumed, looked up): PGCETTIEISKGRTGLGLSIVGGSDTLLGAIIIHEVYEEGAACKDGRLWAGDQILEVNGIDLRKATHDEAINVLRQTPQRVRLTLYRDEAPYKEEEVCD

T10: NHERF3_1, Q5T2W1
T10 sequence (Q5T2W1 4-100, limits assumed, looked up): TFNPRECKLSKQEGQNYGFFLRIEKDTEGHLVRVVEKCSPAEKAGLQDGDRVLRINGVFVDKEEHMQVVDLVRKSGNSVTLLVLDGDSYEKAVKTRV

T11: PCLO, Q9Y6V0
T11 sequence (Q9Y6V0 4491-4600, limits assumed, looked up): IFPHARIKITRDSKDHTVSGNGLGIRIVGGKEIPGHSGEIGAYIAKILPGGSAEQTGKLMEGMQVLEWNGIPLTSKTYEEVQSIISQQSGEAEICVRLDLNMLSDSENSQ

T12: SHANK1, Q9Y566
T12 sequence (Q9Y566 658-767, limits assumed, looked up): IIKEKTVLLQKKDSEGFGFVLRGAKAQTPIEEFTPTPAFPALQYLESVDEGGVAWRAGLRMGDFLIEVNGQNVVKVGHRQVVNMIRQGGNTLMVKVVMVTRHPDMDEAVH


target: T1, APBA2_1, Q99767; experiment: holdup assay; parameters: key: below the threshold = too weak to quantify, mostly under pKd 3.1 to 4; settings: plain residues with an end cap or a label only (N-terminal biotin on a linker: ttds)

Row | pKd | Binder
1 | below the threshold | STLTIFETAL [ABCC4, O15439]
2 | below the threshold | QSARYRDTEL [TJP2, Q9UDY2]

target: T2, ARHGEF11, O15085; experiment: holdup assay; parameters: key: below the threshold = too weak to quantify, mostly under pKd 3.1 to 4; settings: plain residues with an end cap or a label only (N-terminal biotin on a linker: ttds)

Row | pKd | Binder
3 | 4.93 | STLTIFETAL [ABCC4, O15439]
4 | 3.87 | QSARYRDTEL [TJP2, Q9UDY2]

target: ARHGEF12, Q9NZN5-2; experiment: holdup assay; parameters: key: below the threshold = too weak to quantify, mostly under pKd 3.1 to 4; settings: plain residues with an end cap or a label only (N-terminal biotin on a linker: ttds)
Sequence (Q9NZN5 other isoform, or with tags, fused parts or gaps): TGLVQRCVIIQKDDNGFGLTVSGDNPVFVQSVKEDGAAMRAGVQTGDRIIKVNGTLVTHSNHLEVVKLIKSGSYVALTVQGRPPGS

Row | pKd | Binder
5 | 5.21 | STLTIFETAL [ABCC4, O15439]
6 | 4.27 | QSARYRDTEL [TJP2, Q9UDY2]

target: T3, CARD11, Q9BXL7; experiment: holdup assay; parameters: key: below the threshold = too weak to quantify, mostly under pKd 3.1 to 4; settings: plain residues with an end cap or a label only (N-terminal biotin on a linker: ttds)

Row | pKd | Binder
7 | below the threshold | STLTIFETAL [ABCC4, O15439]
8 | below the threshold | QSARYRDTEL [TJP2, Q9UDY2]

target: CASK, O14936; experiment: holdup assay; parameters: key: below the threshold = too weak to quantify, mostly under pKd 3.1 to 4; settings: plain residues with an end cap or a label only (N-terminal biotin on a linker: ttds)
Sequence (O14936 487-570): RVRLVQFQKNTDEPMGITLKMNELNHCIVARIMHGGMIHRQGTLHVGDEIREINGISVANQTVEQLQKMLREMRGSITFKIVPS

Row | pKd | Binder
9 | below the threshold | STLTIFETAL [ABCC4, O15439]
10 | below the threshold | QSARYRDTEL [TJP2, Q9UDY2]

target: GRASP, Q7Z6J2; experiment: holdup assay; parameters: key: below the threshold = too weak to quantify, mostly under pKd 3.1 to 4; settings: plain residues with an end cap or a label only (N-terminal biotin on a linker: ttds)
Sequence (Q7Z6J2 96-193): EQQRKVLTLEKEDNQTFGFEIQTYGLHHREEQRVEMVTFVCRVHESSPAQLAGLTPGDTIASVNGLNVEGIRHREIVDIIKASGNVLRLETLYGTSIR

Row | pKd | Binder
11 | 4.74 | STLTIFETAL [ABCC4, O15439]
12 | below the threshold | QSARYRDTEL [TJP2, Q9UDY2]

target: GRID2IP_1, A4D2P6; experiment: holdup assay; parameters: key: below the threshold = too weak to quantify, mostly under pKd 3.1 to 4; settings: plain residues with an end cap or a label only (N-terminal biotin on a linker: ttds)
Sequence (A4D2P6 1-87): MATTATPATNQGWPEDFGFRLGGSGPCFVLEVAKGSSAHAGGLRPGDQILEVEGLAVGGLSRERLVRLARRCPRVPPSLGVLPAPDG

Row | pKd | Binder
13 | 3.48 | STLTIFETAL [ABCC4, O15439]
14 | 3.59 | QSARYRDTEL [TJP2, Q9UDY2]

target: GRID2IP_2, A4D2P6; experiment: holdup assay; parameters: key: below the threshold = too weak to quantify, mostly under pKd 3.1 to 4; settings: plain residues with an end cap or a label only (N-terminal biotin on a linker: ttds)
Sequence (A4D2P6 272-370): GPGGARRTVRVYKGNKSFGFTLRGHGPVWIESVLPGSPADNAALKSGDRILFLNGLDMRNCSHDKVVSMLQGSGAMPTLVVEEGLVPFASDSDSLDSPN

Row | pKd | Binder
15 | 4.36 | STLTIFETAL [ABCC4, O15439]
16 | below the threshold | QSARYRDTEL [TJP2, Q9UDY2]

target: T4, GRIP1_2, Q9Y3R0; experiment: holdup assay; parameters: key: below the threshold = too weak to quantify, mostly under pKd 3.1 to 4; settings: plain residues with an end cap or a label only (N-terminal biotin on a linker: ttds)

Row | pKd | Binder
17 | below the threshold | STLTIFETAL [ABCC4, O15439]
18 | below the threshold | QSARYRDTEL [TJP2, Q9UDY2]

target: T5, GRIP1_5, Q9Y3R0; experiment: holdup assay; parameters: key: below the threshold = too weak to quantify, mostly under pKd 3.1 to 4; settings: plain residues with an end cap or a label only (N-terminal biotin on a linker: ttds)

Row | pKd | Binder
19 | below the threshold | STLTIFETAL [ABCC4, O15439]
20 | below the threshold | QSARYRDTEL [TJP2, Q9UDY2]

target: GRIP2_3, Q9C0E4; experiment: holdup assay; parameters: key: below the threshold = too weak to quantify, mostly under pKd 3.1 to 4; settings: plain residues with an end cap or a label only (N-terminal biotin on a linker: ttds)
Sequence (Q9C0E4 238-339): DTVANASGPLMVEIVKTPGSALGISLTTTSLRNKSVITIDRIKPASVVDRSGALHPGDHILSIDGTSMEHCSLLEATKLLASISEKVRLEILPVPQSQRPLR

Row | pKd | Binder
21 | below the threshold | STLTIFETAL [ABCC4, O15439]
22 | below the threshold | QSARYRDTEL [TJP2, Q9UDY2]

target: T6, HTRA4, P83105; experiment: holdup assay; parameters: key: below the threshold = too weak to quantify, mostly under pKd 3.1 to 4; settings: plain residues with an end cap or a label only (N-terminal biotin on a linker: ttds)

Row | pKd | Binder
23 | below the threshold | STLTIFETAL [ABCC4, O15439]
24 | below the threshold | QSARYRDTEL [TJP2, Q9UDY2]

target: Inadl_5, Q8NI35; experiment: holdup assay; parameters: key: below the threshold = too weak to quantify, mostly under pKd 3.1 to 4; settings: plain residues with an end cap or a label only (N-terminal biotin on a linker: ttds)
Sequence (Q8NI35 673-780): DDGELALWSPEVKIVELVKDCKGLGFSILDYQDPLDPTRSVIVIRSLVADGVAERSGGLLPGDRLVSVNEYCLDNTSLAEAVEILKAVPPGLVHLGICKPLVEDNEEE

Row | pKd | Binder
25 | below the threshold | STLTIFETAL [ABCC4, O15439]
26 | below the threshold | QSARYRDTEL [TJP2, Q9UDY2]

target: Inadl_8, Q8NI35; experiment: holdup assay; parameters: key: below the threshold = too weak to quantify, mostly under pKd 3.1 to 4; settings: plain residues with an end cap or a label only (N-terminal biotin on a linker: ttds)
Sequence (Q8NI35 1425-1530): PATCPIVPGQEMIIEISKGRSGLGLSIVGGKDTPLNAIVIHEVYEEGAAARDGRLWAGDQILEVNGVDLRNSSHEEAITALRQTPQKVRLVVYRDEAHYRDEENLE

Row | pKd | Binder
27 | below the threshold | STLTIFETAL [ABCC4, O15439]
28 | below the threshold | QSARYRDTEL [TJP2, Q9UDY2]

target: LDB3, O75112; experiment: holdup assay; parameters: key: below the threshold = too weak to quantify, mostly under pKd 3.1 to 4; settings: plain residues with an end cap or a label only (N-terminal biotin on a linker: ttds)
Sequence (O75112 1-94): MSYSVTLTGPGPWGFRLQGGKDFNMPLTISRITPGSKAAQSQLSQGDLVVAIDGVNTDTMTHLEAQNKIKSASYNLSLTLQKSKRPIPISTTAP

Row | pKd | Binder
29 | below the threshold | STLTIFETAL [ABCC4, O15439]
30 | below the threshold | QSARYRDTEL [TJP2, Q9UDY2]

target: T7, LNX2_2, Q8N448; experiment: holdup assay; parameters: key: below the threshold = too weak to quantify, mostly under pKd 3.1 to 4; settings: plain residues with an end cap or a label only (N-terminal biotin on a linker: ttds)

Row | pKd | Binder
31 | below the threshold | STLTIFETAL [ABCC4, O15439]
32 | below the threshold | QSARYRDTEL [TJP2, Q9UDY2]

target: T8, LRRC7, Q96NW7; experiment: holdup assay; parameters: key: below the threshold = too weak to quantify, mostly under pKd 3.1 to 4; settings: plain residues with an end cap or a label only (N-terminal biotin on a linker: ttds)

Row | pKd | Binder
33 | 4.39 | STLTIFETAL [ABCC4, O15439]
34 | 3.86 | QSARYRDTEL [TJP2, Q9UDY2]

target: MAGI1_2, Q96QZ7; experiment: holdup assay; parameters: key: below the threshold = too weak to quantify, mostly under pKd 3.1 to 4; settings: plain residues with an end cap or a label only (N-terminal biotin on a linker: ttds)
Sequence (Q96QZ7 456-580): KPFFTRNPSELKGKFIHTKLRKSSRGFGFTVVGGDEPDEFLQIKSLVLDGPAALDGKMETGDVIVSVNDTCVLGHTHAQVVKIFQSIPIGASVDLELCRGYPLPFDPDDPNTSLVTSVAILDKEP

Row | pKd | Binder
35 | 3.86 | STLTIFETAL [ABCC4, O15439]
36 | below the threshold | QSARYRDTEL [TJP2, Q9UDY2]

target: MAGI2_4, Q86UL8; experiment: holdup assay; parameters: key: below the threshold = too weak to quantify, mostly under pKd 3.1 to 4; settings: plain residues with an end cap or a label only (N-terminal biotin on a linker: ttds)
Sequence (Q86UL8 772-865): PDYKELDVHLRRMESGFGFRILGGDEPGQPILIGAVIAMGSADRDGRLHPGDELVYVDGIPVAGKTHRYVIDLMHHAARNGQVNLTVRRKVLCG

Row | pKd | Binder
37 | 3.54 | STLTIFETAL [ABCC4, O15439]
38 | 3.74 | QSARYRDTEL [TJP2, Q9UDY2]

target: T9, MPDZ_10, O75970; experiment: holdup assay; parameters: key: below the threshold = too weak to quantify, mostly under pKd 3.1 to 4; settings: plain residues with an end cap or a label only (N-terminal biotin on a linker: ttds)

Row | pKd | Binder
39 | below the threshold | STLTIFETAL [ABCC4, O15439]
40 | below the threshold | QSARYRDTEL [TJP2, Q9UDY2]

target: T10, NHERF3_1, Q5T2W1; experiment: holdup assay; parameters: key: below the threshold = too weak to quantify, mostly under pKd 3.1 to 4; settings: plain residues with an end cap or a label only (N-terminal biotin on a linker: ttds)

Row | pKd | Binder
41 | 6.21 | STLTIFETAL [ABCC4, O15439]
42 | 4.33 | QSARYRDTEL [TJP2, Q9UDY2]

target: NHERF4_2, Q86UT5; experiment: holdup assay; parameters: key: below the threshold = too weak to quantify, mostly under pKd 3.1 to 4; settings: plain residues with an end cap or a label only (N-terminal biotin on a linker: ttds)
Sequence (Q86UT5 220-308): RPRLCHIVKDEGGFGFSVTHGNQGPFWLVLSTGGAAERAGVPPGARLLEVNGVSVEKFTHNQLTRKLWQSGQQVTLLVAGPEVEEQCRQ

Row | pKd | Binder
43 | below the threshold | STLTIFETAL [ABCC4, O15439]
44 | below the threshold | QSARYRDTEL [TJP2, Q9UDY2]

target: T11, PCLO, Q9Y6V0; experiment: holdup assay; parameters: key: below the threshold = too weak to quantify, mostly under pKd 3.1 to 4; settings: plain residues with an end cap or a label only (N-terminal biotin on a linker: ttds)

Row | pKd | Binder
45 | below the threshold | STLTIFETAL [ABCC4, O15439]
46 | below the threshold | QSARYRDTEL [TJP2, Q9UDY2]

target: PTPN3, P26045; experiment: holdup assay; parameters: key: below the threshold = too weak to quantify, mostly under pKd 3.1 to 4; settings: plain residues with an end cap or a label only (N-terminal biotin on a linker: ttds)
Sequence (P26045 505-587): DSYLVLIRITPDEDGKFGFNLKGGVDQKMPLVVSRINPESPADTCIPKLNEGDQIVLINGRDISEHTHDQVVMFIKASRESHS

Row | pKd | Binder
47 | 5.11 | STLTIFETAL [ABCC4, O15439]
48 | 4.98 | QSARYRDTEL [TJP2, Q9UDY2]

target: T12, SHANK1, Q9Y566; experiment: holdup assay; parameters: key: below the threshold = too weak to quantify, mostly under pKd 3.1 to 4; settings: plain residues with an end cap or a label only (N-terminal biotin on a linker: ttds)

Row | pKd | Binder
49 | 5.1 | STLTIFETAL [ABCC4, O15439]
50 | 3.74 | QSARYRDTEL [TJP2, Q9UDY2]
